{"source": "paper PMC9486944", "about": "“Structurally Informed Mutagenesis of a Stereochemically Promiscuous Aldolase Produces Mutants That Catalyze the Diastereoselective Syntheses of All Four Stereoisomers of 3-Deoxy-hexulosonic Acid” (ACS Catalysis, 2022)", "molecules": {"B1": {"name": "SsKDG-aldolase (Saccharolobus solfataricus; A198L/T157V) (protein)", "chain": "PEIITPIITPFTKDNRIDKEKLKIHAENLIRKGIDKLFVNGTTGLGPSLSPEEKLENLKAVYDVTNKIIFQVGGLNLDDAIRLAKLSKDFDIVGIASYAPYYYPRMSEKHLVKYFKTLCEVSPHPVYLYNYPTATGKDIDAKVAKEIGCFTGVKDVIENIIHTLDYKRLNPNMLVYSGSDMLIATVASTGLDGNVALGSNYLPEVTVTIKKLAMERKIDEALKLQFLHDEVIEASRIFGSLSSNYVLTKYFQGYDLGYPRPPIFPLDDEEERQLIKKVEGIRAKLVELKILKE", "notes": "full length, pET-3a in E. coli BL21 (DE3); heat treatment, anion exchange, gel filtration; no tag mentioned; 293 C-alpha positions; tetramer"}, "B2": {"name": "SsKDG-aldolase (Saccharolobus solfataricus; A198F/Y103F/Y130F) (protein)", "chain": "B1 chain with Y102F, Y129F, V156T, L197F", "notes": "as for B1"}}, "key": {"SsKDG-aldolase": {"biological_target": "T1, SsKDG-aldolase (Saccharolobus solfataricus, UniProt O54288, T157V/A198L)", "T1 construct": "full length, pET-3a in E. coli BL21 (DE3); heat treatment, anion exchange, gel filtration; no tag mentioned; 293 C-alpha positions; tetramer", "assay": "X-ray crystal structure", "assay_type": "binding", "conditions": "Variant 3; 2 min soak in 30 mM ligand; active site, covalent (Lys155 Schiff base)", "excerpt": "X-ray crystal structure on SsKDG-aldolase | which enabled us to determine the structure of the […] complex"}, "[1]": {"biological_target": "SsKDG-aldolase Variant 2 (T157V/D181Q/A198L) (Sulfolobus solfataricus)", "assay": "crystal structure; hanging-drop vapor diffusion at 18 °C; 11–15% PEG4K, 4–12% isopropanol, 0.1 M HEPES pH 5.9–6.8; unsoaked crystals, crystals soaked in 30 mM 3-deoxy-hexulosonic acid, Variant 2 also cocrystallized with 100 mM pyruvate"}, "[2]": {"substrate": "CC(=O)C(=O)O", "assay": "thiobarbituric acid assay of aldol product", "assay_type": "biochemical, Saccharolobus solfataricus", "conditions": "50 mM sodium phosphate pH 6.0, 70 °C", "source_text": "thiobarbituric acid assay of aldol product on SsKDG-aldolase"}, "purified protein [3]": {"substrate": "O=C[C@H](O)CO", "assay": "purified protein", "conditions": "50 mM sodium phosphate pH 6.0, 70 °C"}, "purified protein [4]": {"substrate": "O=C[C@@H](O)CO", "assay": "purified protein", "conditions": "50 mM sodium phosphate pH 6.0, 70 °C"}, "[5]": {"conditions": "Variant 3, near-saturating D-glyceraldehyde"}, "[6]": {"conditions": "Variant 3, near-saturating pyruvate"}, "[7]": {"conditions": "Variant 4, near-saturating D-glyceraldehyde"}, "[8]": {"conditions": "Variant 4, near-saturating pyruvate"}}, "note": "Positions count from the first letter of the chain named. Names and notes keep the numbering of the source."}
{"molecule": "O=C(O)C(=O)C[C@@H](O)[C@@H](O)CO", "note": "[L-KDGlc]", "values": [{"measurement": "X-ray crystal structure", "setting": "SsKDG-aldolase", "result": "which enabled us to determine the structure of the L-KDGlc complex"}]}
{"molecule": "SsKDG-aldolase Variant 2 (T157V/D181Q/A198L) (enzyme)", "values": [{"measurement": "stoichiometry N", "setting": "[1]", "result": 4}]}
{"molecule": "B1", "values": [{"measurement": "Km", "setting": "[2]; [5]", "result": "2.9 (±0.1) mM"}, {"measurement": "Vmax", "setting": "[2]; [5]", "result": 1.7, "unit": "µmol/min/mg"}, {"measurement": "Km", "setting": "purified protein [3]; [6]", "result": "19.5 (±0.2) mM"}, {"measurement": "Vmax", "setting": "purified protein [3]; [6]", "result": 1.8, "unit": "µmol/min/mg"}, {"measurement": "Km", "setting": "purified protein [4]; [6]", "result": "37.6 (±0.2) mM"}, {"measurement": "Vmax", "setting": "purified protein [4]; [6]", "result": 6.1, "unit": "µmol/min/mg"}]}
{"molecule": "B2", "values": [{"measurement": "Km", "setting": "[2]; [7]", "result": "0.3 (±0.04) mM"}, {"measurement": "Vmax", "setting": "[2]; [7]", "result": 0.09, "unit": "µmol/min/mg"}, {"measurement": "Km", "setting": "purified protein [3]; [8]", "result": "6.9 (±0.2) mM"}, {"measurement": "Vmax", "setting": "purified protein [3]; [8]", "result": 0.11, "unit": "µmol/min/mg"}, {"measurement": "Km", "setting": "purified protein [4]; [8]", "result": "6.3 (±0.18) mM"}, {"measurement": "Vmax", "setting": "purified protein [4]; [8]", "result": 0.06, "unit": "µmol/min/mg"}]}
